We go through three substances from PMC4902571.

The target of assay [1] is EGFR-EGFP with deletion of the dimerization arm, residues 242 to 259 (human) (UniProt P00533). Description: single-molecule stepwise photobleaching (TIRF microscopy); EGFP fusions on the membrane of live Xenopus oocytes, without EGF; ~1 to ~5 molecules per um^2; room temperature; 20 Hz; 3% two-step baseline (Claudin-16) subtracted.
Assay [2] addresses Src13-GCN4: c-Src membrane localization sequence, coiled-coil segment of GCN4, EGFP or mCherry. Description: PIE-FCCS (pulsed-interleaved excitation fluorescence cross-correlation spectroscopy); control constructs with the c-Src membrane localization sequence, EGFP and mCherry fusions coexpressed; data collected previously on the same instrument and reproduced here; median fraction correlated fc.

Assay [3] concerns the target Src13-GCN4-EGFRk: c-Src membrane localization sequence, coiled-coil segment of GCN4 joined to the N-terminus of the kinase domain of EGFR, EGFP or mCherry (UniProt P00533). Described as above.

“EGFR-EGFP with deletion of the dimerization arm, residues 242 to 259 (from UniProt P00533 25-1210) (receptor)” showed a fraction of two-step photobleaching events (baseline subtracted) in assay [1] of 9%.
The substance “Src13-GCN4: c-Src membrane localization sequence, coiled-coil segment of GCN4, EGFP or mCherry” showed a fraction correlated fc (median) in assay [2] of 0.13.
In turn, “Src13-GCN4-EGFRk: c-Src membrane localization sequence, coiled-coil segment of GCN4 joined to the N-terminus of the kinase domain of EGFR, EGFP or mCherry (from UniProt P00533 712-979)” came in with a fraction correlated fc (median) in assay [3] of 0.23.
